Data published in paper PMC2756588.

T1: Lsb4, P32793
T1 sequence (P32793 402-468, looked up): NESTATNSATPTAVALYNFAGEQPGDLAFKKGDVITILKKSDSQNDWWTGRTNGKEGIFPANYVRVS

T2: Lsb1, P53281
T2 sequence (P53281 45-122, looked up): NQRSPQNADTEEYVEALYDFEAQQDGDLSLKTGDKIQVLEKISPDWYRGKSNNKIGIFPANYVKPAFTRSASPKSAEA

T3: Bzz1-1, P38822
T3 sequence (P38822 478-572, looked up): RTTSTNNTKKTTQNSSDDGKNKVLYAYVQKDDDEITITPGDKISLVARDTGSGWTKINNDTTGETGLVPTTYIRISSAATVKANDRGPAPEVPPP

T4: Nbp2, Q12163
T4 sequence (Q12163 103-180, looked up): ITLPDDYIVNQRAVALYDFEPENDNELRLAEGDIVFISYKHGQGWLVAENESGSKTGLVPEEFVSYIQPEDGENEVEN

T5: Sla1-2, P32790
T5 sequence (P32790 60-140, looked up): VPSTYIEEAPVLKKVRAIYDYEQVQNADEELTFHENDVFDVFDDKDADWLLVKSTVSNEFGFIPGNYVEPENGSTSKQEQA

T6: Bud14, P27637
T6 sequence (P27637 247-328, looked up): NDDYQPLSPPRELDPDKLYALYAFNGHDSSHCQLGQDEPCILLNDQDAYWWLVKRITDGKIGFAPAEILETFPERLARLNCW

T7: Pex13, P80667
T7 sequence (P80667 295-386, looked up): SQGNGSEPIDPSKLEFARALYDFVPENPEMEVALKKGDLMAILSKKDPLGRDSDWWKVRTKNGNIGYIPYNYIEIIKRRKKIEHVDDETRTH

T8: Boi2, P39969
T8 sequence (P39969 32-116, looked up): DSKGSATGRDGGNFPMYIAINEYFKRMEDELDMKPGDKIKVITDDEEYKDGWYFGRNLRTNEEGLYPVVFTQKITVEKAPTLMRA

T9: Bbc1, P47068
T9 sequence (P47068 1-78, looked up): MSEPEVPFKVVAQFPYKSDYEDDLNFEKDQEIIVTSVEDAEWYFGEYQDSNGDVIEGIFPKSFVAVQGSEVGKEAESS

T10: Cdc25, P04821
T10 sequence (P04821 50-136, looked up): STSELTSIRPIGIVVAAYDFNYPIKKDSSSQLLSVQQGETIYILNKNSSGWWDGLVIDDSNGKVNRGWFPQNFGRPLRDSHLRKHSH

T11: Abp1, P15891
T11 sequence (P15891 535-592, looked up): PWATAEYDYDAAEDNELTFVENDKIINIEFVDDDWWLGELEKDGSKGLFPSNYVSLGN

T12: Myo5, Q04439
T12 sequence (Q04439 1072-1160, looked up): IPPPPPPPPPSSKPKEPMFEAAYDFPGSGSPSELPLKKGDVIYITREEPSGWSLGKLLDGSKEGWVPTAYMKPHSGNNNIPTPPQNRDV

T13: Bzz1-2, P38822
T13 sequence (P38822 568-633, looked up): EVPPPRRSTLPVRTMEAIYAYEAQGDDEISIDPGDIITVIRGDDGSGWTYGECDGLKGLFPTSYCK

T14: Lsb3, P43603
T14 sequence (P43603 385-451, looked up): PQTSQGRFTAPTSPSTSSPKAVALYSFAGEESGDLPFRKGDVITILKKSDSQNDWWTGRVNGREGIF

T15: Cyk3, Q07533
T15 sequence (Q07533 1-83, looked up): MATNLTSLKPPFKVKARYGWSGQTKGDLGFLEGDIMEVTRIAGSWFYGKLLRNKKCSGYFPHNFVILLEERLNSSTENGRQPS

T16: Boi1, P38041
T16 sequence (P38041 1-86, looked up): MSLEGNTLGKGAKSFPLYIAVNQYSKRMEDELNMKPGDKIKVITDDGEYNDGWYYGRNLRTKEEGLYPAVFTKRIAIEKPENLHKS

T17: Hse1, P38753
T17 sequence (P38753 208-285, looked up): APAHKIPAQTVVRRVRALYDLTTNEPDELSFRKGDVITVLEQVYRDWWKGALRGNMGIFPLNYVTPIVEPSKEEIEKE

T18: Sla1-3, P32790
T18 sequence (P32790 344-424, looked up): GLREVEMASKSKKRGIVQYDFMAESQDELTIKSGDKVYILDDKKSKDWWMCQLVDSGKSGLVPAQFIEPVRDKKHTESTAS

T19: Fus1, P11710
T19 sequence (P11710 432-512, looked up): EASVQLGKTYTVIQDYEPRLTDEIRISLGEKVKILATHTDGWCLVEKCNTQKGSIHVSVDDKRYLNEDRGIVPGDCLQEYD

T20: Hof1, Q05080
T20 sequence (Q05080 590-669, looked up): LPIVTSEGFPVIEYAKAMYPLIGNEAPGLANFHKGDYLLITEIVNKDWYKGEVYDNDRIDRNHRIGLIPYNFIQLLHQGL

T21: Pin3, Q06449
T21 sequence (Q06449 53-122, looked up): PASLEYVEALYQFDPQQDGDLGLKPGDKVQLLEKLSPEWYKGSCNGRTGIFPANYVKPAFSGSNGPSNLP


Target: Rvs167, P39743
Experiment: SPOT array
Settings: median of control spots 2707

Sequence of Rvs167, P39743 (P39743 419-482): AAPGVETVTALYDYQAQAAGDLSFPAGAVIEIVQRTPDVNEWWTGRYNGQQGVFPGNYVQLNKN

SPOT intensity	Binder
0	RRRIAYPFYPFKKLG
0	RRRDFGAPANKRPRR
0	RKRRTHLRLPLIRSN

Target: T1, Lsb4, P32793
Experiment: SPOT array
Settings: median of control spots 397

SPOT intensity	Binder
0	RRRIAYPFYPFKKLG
4	RRRDFGAPANKRPRR
0	RKRRTHLRLPLIRSN

Target: T2, Lsb1, P53281
Experiment: SPOT array
Settings: median of control spots 388

SPOT intensity	Binder
4	RRRIAYPFYPFKKLG
0	RRRDFGAPANKRPRR
3	RKRRTHLRLPLIRSN

Target: Bem1-2, P29366
Experiment: SPOT array
Settings: median of control spots 4347

Sequence of Bem1-2, P29366 (P29366 139-227): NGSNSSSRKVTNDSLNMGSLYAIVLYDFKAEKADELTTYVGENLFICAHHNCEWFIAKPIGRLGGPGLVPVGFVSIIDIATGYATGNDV

SPOT intensity	Binder
3	RRRIAYPFYPFKKLG
4	RRRDFGAPANKRPRR
0	RKRRTHLRLPLIRSN

Target: T3, Bzz1-1, P38822
Experiment: SPOT array
Settings: median of control spots 4446

SPOT intensity	Binder
0	RRRIAYPFYPFKKLG
3	RRRDFGAPANKRPRR
1	RKRRTHLRLPLIRSN

Target: T4, Nbp2, Q12163
Experiment: SPOT array
Settings: median of control spots 357

SPOT intensity	Binder
21	RRRIAYPFYPFKKLG
2	RRRDFGAPANKRPRR
9	RKRRTHLRLPLIRSN

Target: T5, Sla1-2, P32790
Experiment: SPOT array
Settings: median of control spots 712

SPOT intensity	Binder
0	RRRIAYPFYPFKKLG
0	RRRDFGAPANKRPRR
0	RKRRTHLRLPLIRSN

Target: Sho1, P40073
Experiment: SPOT array
Settings: median of control spots 1148

Sequence of Sho1, P40073 (P40073 287-367): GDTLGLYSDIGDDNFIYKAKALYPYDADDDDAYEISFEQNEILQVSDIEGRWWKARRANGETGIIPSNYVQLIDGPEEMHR

SPOT intensity	Binder
25	RRRIAYPFYPFKKLG
90	RRRDFGAPANKRPRR
47	RKRRTHLRLPLIRSN

Target: T6, Bud14, P27637
Experiment: SPOT array
Settings: median of control spots 956

SPOT intensity	Binder
3	RRRIAYPFYPFKKLG
4	RRRDFGAPANKRPRR
23	RKRRTHLRLPLIRSN

Target: T7, Pex13, P80667
Experiment: SPOT array
Settings: median of control spots 1341

SPOT intensity	Binder
5	RRRIAYPFYPFKKLG
2	RRRDFGAPANKRPRR
0	RKRRTHLRLPLIRSN

Target: Myo3, P36006
Experiment: SPOT array
Settings: median of control spots 468

SPOT intensity	Binder
2	RRRIAYPFYPFKKLG
16	RRRDFGAPANKRPRR
5	RKRRTHLRLPLIRSN

Target: T8, Boi2, P39969
Experiment: SPOT array
Settings: median of control spots 1161

SPOT intensity	Binder
0	RRRIAYPFYPFKKLG
1	RRRDFGAPANKRPRR
0	RKRRTHLRLPLIRSN

Target: T9, Bbc1, P47068
Experiment: SPOT array
Settings: median of control spots 796

SPOT intensity	Binder
133	RRRIAYPFYPFKKLG
20	RRRDFGAPANKRPRR
101	RKRRTHLRLPLIRSN

Target: T10, Cdc25, P04821
Experiment: SPOT array
Settings: median of control spots 969

SPOT intensity	Binder
85	RRRIAYPFYPFKKLG
11	RRRDFGAPANKRPRR
59	RKRRTHLRLPLIRSN

Target: T11, Abp1, P15891
Experiment: SPOT array
Settings: median of control spots 935

SPOT intensity	Binder
36	RRRIAYPFYPFKKLG
165	RRRDFGAPANKRPRR
75	RKRRTHLRLPLIRSN

Target: T12, Myo5, Q04439
Experiment: SPOT array
Settings: median of control spots 471

SPOT intensity	Binder
0	RRRIAYPFYPFKKLG
2	RRRDFGAPANKRPRR
0	RKRRTHLRLPLIRSN

Target: T13, Bzz1-2, P38822
Experiment: SPOT array
Settings: median of control spots 4538

SPOT intensity	Binder
6	RRRIAYPFYPFKKLG
7	RRRDFGAPANKRPRR
0	RKRRTHLRLPLIRSN

Target: T14, Lsb3, P43603
Experiment: SPOT array
Settings: median of control spots 406

SPOT intensity	Binder
0	RRRIAYPFYPFKKLG
10	RRRDFGAPANKRPRR
0	RKRRTHLRLPLIRSN

Target: T15, Cyk3, Q07533
Experiment: SPOT array
Settings: median of control spots 1451

SPOT intensity	Binder
1	RRRIAYPFYPFKKLG
3	RRRDFGAPANKRPRR
8	RKRRTHLRLPLIRSN

Target: T16, Boi1, P38041
Experiment: SPOT array
Settings: median of control spots 1162

SPOT intensity	Binder
2	RRRIAYPFYPFKKLG
0	RRRDFGAPANKRPRR
2	RKRRTHLRLPLIRSN

Target: T17, Hse1, P38753
Experiment: SPOT array
Settings: median of control spots 1727

SPOT intensity	Binder
13	RRRIAYPFYPFKKLG
5	RRRDFGAPANKRPRR
6	RKRRTHLRLPLIRSN

Target: Bem1-1, P29366
Experiment: SPOT array
Settings: median of control spots 4282

Sequence of Bem1-1, P29366 (P29366 55-141): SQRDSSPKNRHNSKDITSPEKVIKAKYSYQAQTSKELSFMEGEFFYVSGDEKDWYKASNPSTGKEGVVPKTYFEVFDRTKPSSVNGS

SPOT intensity	Binder
1	RRRIAYPFYPFKKLG
0	RRRDFGAPANKRPRR
0	RKRRTHLRLPLIRSN

Target: T18, Sla1-3, P32790
Experiment: SPOT array
Settings: median of control spots 5475

SPOT intensity	Binder
21	RRRIAYPFYPFKKLG
30	RRRDFGAPANKRPRR
14	RKRRTHLRLPLIRSN

Target: GST
Experiment: SPOT array
Settings: median of control spots 978

SPOT intensity	Binder
2	RRRIAYPFYPFKKLG
3	RRRDFGAPANKRPRR
4	RKRRTHLRLPLIRSN

Target: T19, Fus1, P11710
Experiment: SPOT array
Settings: median of control spots 1200

SPOT intensity	Binder
14	RRRIAYPFYPFKKLG
8	RRRDFGAPANKRPRR
55	RKRRTHLRLPLIRSN

Target: T20, Hof1, Q05080
Experiment: SPOT array
Settings: median of control spots 4086

SPOT intensity	Binder
8	RRRIAYPFYPFKKLG
0	RRRDFGAPANKRPRR
0	RKRRTHLRLPLIRSN

Target: T21, Pin3, Q06449
Experiment: SPOT array
Settings: median of control spots 2171

SPOT intensity	Binder
0	RRRIAYPFYPFKKLG
9	RRRDFGAPANKRPRR
3	RKRRTHLRLPLIRSN
